Test results reported in paper PMC2837123.

Molecular target: full-length wild type prototype foamy virus (PFV) integrase (prototype foamy virus (PFV))
Assay: crystal structure

Question: How did the stoichiometry N turn out when “full-length wild type prototype foamy virus (PFV) integrase (enzyme)” was run?
Answer: 4
